One block for each molecule: values may come before it.
B1: Wild type IgA Fc domain (other)
chain: VPCPVPSTPPTPSPSTPPTPSPSCCHPRLSLHRPALEDLLLGSEANLTCTLTGLRDASGVTFTWTPSSGKSAVQGPPERDLCGCYSVSSVLPGCAEPWNHGKTFTCTAAYPESKTPLTATLSKSGNTFRPEVHLLPPPSEELALNELVTLTCLARGFSPKDVLVRWLQGSQELPREKYLTWASRQEPSQGTTTFAVTSILRVAAEDWKKGDTFSCMVGHEALPLAFTQKTIDR
notes: Template for the alanine scan; also called wild-type glycosylated IgA; IgA CH2 CH3

Tests used:
[1] = molecular target: T1, FcαRI-GST (UniProt P24071 22-227, limits assumed); assay: SPR, antibody amine coupled, dimeric FcαRI-GST flowed, 2:1 bivalent analyte fit
T1 construct: extracellular domain; Made in HEK293F cells from pMaz-IgH-FcαRI-GST (dimeric expression) and purified on glutathione Sepharose; also called soluble dimeric FcαRI-GST; CD89; not shown: GST tag

[2] = molecular target: T2, FcγRI-GST (UniProt P12314 16-292, limits assumed); assay: ELISA: Fc domain coated at 4 µg/mL, FcγRI-GST in 1:4 serial dilution, anti-GST HRP, A450
T2 construct: not shown: GST tag
Description: (§1) ELISA plates (Qiagen) were coated with 4 μg/mL of each of the mutant Fc domains in 1×PBS (pH 7.4) overnight at 4° C. The next day the plates were blocked for 2 hours at room temperature with 2% milk in 1×PBS containing 0.05% Tween (PBST) and washed three times in PBST at pH 7.4. To the first well, 66 μL of 20 μg/mL of either FcγRI-GST, FcγRI-GST, FcγRIIa-R131-GST, FcγRIIb-GST, or FcγRIIIa-F158-GST dissolved in PBS with 2% milk (PBSM) was added followed by 1:4 serial dilution. After 1 h of incubation at room temperature, the plates were washed and 50 μL PBSM was added containing 1:5000 goat anti-GST HRP (GE Healthcare) for 1 hour. To develop the plates, the wells were washed 3× with PBST, 50 μL TMB substrate was added per well (Thermo Scientific), 50 μL of 1 M H₂SO₄ was added to neutralize, and the absorbance at 450 nm was recorded.

[3] = molecular target: T1, FcαRI-GST; assay: ELISA: Fc domain coated at 4 µg/mL, FcαRI-GST in 1:4 serial dilution, anti-GST HRP, A450
Description: as §1

[4] = molecular target: B1; assay: ELISA: Fc domain coated at 4 µg/mL, FcγRIIa-R131-GST in 1:4 serial dilution, anti-GST HRP, A450
Description: as §1

T1 sequence (P24071 22-227 limits assumed): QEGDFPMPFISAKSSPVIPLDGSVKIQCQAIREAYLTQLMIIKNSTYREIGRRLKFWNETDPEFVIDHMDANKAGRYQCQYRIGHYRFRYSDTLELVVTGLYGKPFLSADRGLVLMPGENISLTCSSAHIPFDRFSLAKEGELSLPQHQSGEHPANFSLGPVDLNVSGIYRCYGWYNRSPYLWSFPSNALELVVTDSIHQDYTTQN
T2 sequence (P12314 16-292 limits assumed): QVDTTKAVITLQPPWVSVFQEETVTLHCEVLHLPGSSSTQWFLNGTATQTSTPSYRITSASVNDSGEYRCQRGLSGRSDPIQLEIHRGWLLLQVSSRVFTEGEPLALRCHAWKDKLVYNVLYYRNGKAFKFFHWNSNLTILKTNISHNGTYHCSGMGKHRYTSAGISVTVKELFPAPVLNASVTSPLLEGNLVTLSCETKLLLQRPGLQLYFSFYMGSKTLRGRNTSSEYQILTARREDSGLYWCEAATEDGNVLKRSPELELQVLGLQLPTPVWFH

Kd [1]: 500 nM
Molecule: trastuzumab IgA (antibody)

Molecule: B1
binding result [2]: no binding

binding result [3]: no binding
B2: Mutant B (other)
Fc chain (hinge-CH2-CH3): DKTHTCPPCPAPELLGGPSVFLFPPKPKDTLMISRTPEVTCVVVDVSHEDPEVKFNWYVDGVEVHNAKTKPREEQYNSTYRVVSVLTVLHQDWLNGKEYKCKVSNKALPAPIEKTISKAKSGNTFRPEVHLLPPPSEELALNELVTLTCLARGFSPKDVLVRWLQGSQELPREKYLTWASRQEPSQGTTTFAVTSILRVAAEDWKKGDTFSCMVGHEALPLAFTQKTIDR
notes: Purified over Ni-NTA (His tag); also called Mutant B Fc domain; MutB

binding result [4]: no binding
B3: FcγRIIa-R131-GST (receptor, UniProt P12318 34-217, looked up)
chain: QAAAPPKAVLKLEPPWINVLQEDSVTLTCQGARSPESDSIQWFHNGNLIPTHTQPSYRFKANNNDSGEYTCQTGQTSLSDPVHLTVLSEWLVLQTPHLEFQEGETIMLRCHSWKDKPLVKVTFFQNGKSQKFSRLDPTFSIPQANHSHSGDYHCTGNIGYTLFSSKPVTITVQVPSMGSSSPMG
notes: R131 is an allele name counted on the mature protein; not shown: GST tag

Reference: patent US20150266960A1 (University of Texas, published 2015)
